Article PMC7610252 (Biochemistry, 2017)

T1: FixX subunit of the FixABCX complex from Azotobacter vinelandii (Azotobacter vinelandii, UniProt P53658 1-94)
T1 sequence (looked up): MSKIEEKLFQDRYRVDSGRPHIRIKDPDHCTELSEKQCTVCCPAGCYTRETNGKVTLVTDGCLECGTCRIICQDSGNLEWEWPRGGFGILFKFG

B1: FixC subunit of the FixABCX complex from Azotobacter vinelandii (natural protein, UniProt P53572 2-427, looked up)
chain: AERFDVIVVGAGMAGNAAAYTLAKGGLKVLQIERGETPGSKNVQGAILYADAIEKIIPDFRDDAPLERHLIEQRVWVMDDASYGYHYRSEDFNKPPYNRYTIIRVHFDQWFNKKAREAGVLTICETRHDLLIEGGKVVGVRTDRQGGEVRADAVILADGVNSRLAVKAGFSRDQPENWALAVKEIHFLPQETMEARFNIGEEEAAIEMAGKIDAGMMGTGFLYTNKESITLGVGCMLSDFKQQKISPYELLDRMKTHPSIAPLIAGSDMKEYAAHLIPEGGYNAIPQVYGDGWMIAGDAPIRHGIHREGSNLAMTTGMLAAQTLVELRAADKPFSAANLAEYKKKLDDSFVMKDLKKYRRMPEIFHKNKQFFTTYPDLLSRAAQTLIRVDGVDKKTKEKEIKKSFIGLRSLFGLIGDAFKFWRAVE
B2: FixA subunit of the FixABCX complex from Azotobacter vinelandii (natural protein, UniProt P53576 1-281, looked up)
chain: MHSVVCIKQLPDSAQIRVHPVTNTIMRQGVPAIINPYDLFALEEALRLKDKFGGTVTVVTMGPPMAEAALRKCLSFGADDAILVSDRAFAGSDTLATSYALSAVIRKIMEDMPVDLIFTGKQTIDGDTAQVGPGIAKRLDYQLLTYVSRIVDVDTAKKEIQVERRAEGGVQLLETSLPCLITMLEGTNEMRFGDLDDLFRAARHELKVWDRVAAGIDTVEMIGLKGSPTVVSKVFAPKPRSKRAELIESHDSDPKNLAEAALAKLFTQHPNLEQEIAKRAV
B3: FixB subunit of the FixABCX complex from Azotobacter vinelandii (natural protein, UniProt P53574 2-360, looked up)
chain: SEQPKKPTKKKVELDPRFVDVRHVWVCIESERGVVHPVSWELLGEGRKSVDALGGELYGVVICGPGERGKEICGEPVQHGADKAYLLQHEILRDYRNEPYTKALTDLVTATQPEILMLGATTLGRDLAGSVATTLGTGLVADCTELVIDTETRNLASTRPTFDGSLLCKPSSAQRHRPQMATVRPRMAMPEPDASRSGEIIEVPFSMIETDIITKVLEFIPDDTRDKPNLPFADIIVAGGRGLRNQENFQLVWDLAKVLGAEVGASRPIVQAGWAELDRQVGQSGKTVRPKLYIAAGISGAIQHRVGMDGADVIIAINTDPNAPIFDFAHYGIVGNAITVLPALTEAFKARLGQLKKAG

Assays:
[1] = biological target: FixAB from Rhodospirillum rubrum (Rhodospirillum rubrum, UniProt Q6US86+Q6US87); experiment: transient absorption spectroscopy of bound flavin; format: binding; settings: FAD-reconstituted, as-isolated oxidized state; room temperature
[2] = biological target: T1, FixX subunit of the FixABCX complex …; experiment: co-purification
[3] = biological target: B3; experiment: co-purification
[4] = biological target: B1; experiment: co-purification

Molecule: Cc1cc2nc3c(=O)[nH]c(=O)nc-3n(C[C@H](O)[C@H](O)[C@H](O)COP(=O)(O)OP(=O)(O)OC[C@H]3O[C@@H](n4cnc5c(N)ncnc54)[C@H](O)[C@@H]3O)c2cc1C [FAD]
transient absorption spectroscopy of bound flavin [1]: two ASQ species can be formed in the FixAB unit, consistent with the presence of two flavins

Molecule: B1
stoichiometry N [2]: 1

Molecule: B2
stoichiometry N [3]: 1

Molecule: B3
stoichiometry N [4]: 1
